{"source": "paper PMC6783867", "about": "“Synthesis and Characterization of Cry2Ab–AVM Bioconjugate: Enhanced Affinity to Binding Proteins and Insecticidal Activity” (Toxins, 2019)", "binders": {"B1": {"name": "Bacillus thuringiensis insecticidal protein (Bt toxin) Cry2Ab30 (natural protein)", "chain": "MNSVLNSGRTTICDAYNVAAHDPFSFQHKSLDTVQKEWTEWKKNNHSLYLDPIVGTVASFLLKKVGSLVGKRILSELRNLIFPSGSTNLMQDILRETEKFLNQRLNTDTLARVNAELTGLQANVEEFNRQVDNFLNPNRNAVPLSITSSVNTMQQLFLNRLPQFQMQGYQLLLLPLFAQAANLHLSFIRDVILNADEWGISAATLRTYRDYLKNYTRDYSNYCINTYQSAFKGLNTRLHDMLEFRTYMFLNVFEYVSIWSLFKYQSLLVSSGANLYASGSGPQQTQSFTSQDWPFLYSLFQVNSNYVLNGFSGARLSNTFPNIVGLPGSTTTHALLAARVNYSGGISSGDIGASPFNQNFNCSTFLPPLLTPFVRSWLDSGSDREGVATVTNWQTESFETTLGLRSGAFTARGNSNYFPDYFIRNISGVPLVVRNEDLRRPLHYNEIRNIASPSGTPGGARAYMVSVHNRKNNIHAVHENGSMIHLAPNDYTGFTISPIHATQVNNQTRTFISEKFGNQGDSLRFEQNNTTARYTLRGNGNSYNLYLRVSSIGNSTIRVTINGRVYTATNVNTTTNNDGVNDNGARFSDINIGNVVASSNSDVPLDINVTLNSGTQFDLMNIMLVPTNISPLY"}}, "target": "T1, 10th and 11th cadherin repeat domains of the Plutella xylostella cadherin (PxCR10–11), GST-tagged (Plutella xylostella)", "T1 construct": "Plutella xylostella cadherin, 10th and 11th CR domains, residues 1258–1602 aa; also called truncated recombinant P. xylostella cadherin; source: Escherichia coli expression system, purified (GST-Sefinose prepacked gravity column)", "assay": "BLI; Octet Red 96; GST-tagged PxCR10–11 loaded onto anti-GST biosensors; toxin 38.5 to 576.9 nM in solution; 400 s association, 400 s dissociation; 10 mM GSH, 50 mM Tris, pH 8.0; 1:1 binding model", "settings": "both partners purified"}
{"binder": "B1", "values": [{"measurement": "Kd", "value": 28.7, "unit": "nM"}]}
